Test results from patent US20140056893A1 (Eli Lilly, published 2014).

Biological target: human glucagon-like peptide 1 receptor (hGLP-1R) (human, UniProt P43220 24-463)
Assay: cell-based or functional assay

B1: Homodimeric protein wherein the amino acid sequence of each polypeptide of said protein is SEQ ID NO: 1 (Fc fusion)
chain: HGEGTFTSDVSSYLEEQAAKEFIAWLVAGGGGGGGSGGGGSGGGGSESKYGPPCPPCPAPEAAGGPSVFLFPPKPKDTLMISRTPEVTCVVVDVSCEDPEVQFNWYVDGVEVHNAKTKPREEQFNSTYRVVSVLTVLHQDWLNGKEYKCKVSNKGLPSSIEKTISKAKGQPREPQVYTLPPSCEEMTKNQVSLTCLVKGFYPSDIAVEWESNGQPENNYKTTPPVLDSDGSFFLYSRLTVDKSRWQEGNVFSCSVMHEALHNHYTQKSLSLSLGGGGGSGGGGSGGGGSAHPIPDSSPLLQFGGQVRQRYLYTDDAQQTECHLEIREDGTVGCAADQSPESLLQLKALKPGVIQILGVKTSRFLCQRPDGALYGSLHFDPEACSFREDLKEDGYNVYQSEAHGLPLHLPGDKSPHRKPAPRGPARFLPLPGLPPALPEPPGILAPQPPDVGSSDPLRLVEPSCLRSPSFE
For B1, the “In vitro potency (EC50), hGLP-1R-stimulated cAMP functional assay (Alpha Screen) in hGLP-1R-HEK293 cells” value was 0.067 nM.
